Experimental findings from paper PMC11640836, “Aminomethylmorpholino Nucleosides as Novel Inhibitors of PARP1 and PARP2: Experimental and Molecular Modeling Analyses of Their Selectivity and Mechanism of Action” (International Journal of Molecular Sciences, 2024) are described below.

In one data set the test system is PARP2. As to the kind of experiment: fluorescence anisotropy. The note with it: 800 nM olaparib; 50 mM NaCl, 50 mM Tris-HCl pH 8.0, 4 mM DTT; 25 nM FAM-DNA, 20-200 nM PARP1 or 20-800 nM PARP2; mixed on ice, 10 min at room temperature. For orientation: Fluorescence polarisation rises when a labelled molecule tumbles more slowly, as on binding a larger partner.
In the next data set the test system is PARP1. In words: fluorescence anisotropy. The conditions noted are these: 400 nM olaparib; 50 mM NaCl, 50 mM Tris-HCl pH 8.0, 4 mM DTT; 25 nM FAM-DNA, 20-200 nM PARP1 or 20-800 nM PARP2; mixed on ice, 10 min at room temperature.

As to FAM gap-DNA (32-mer duplex, 1-nt gap), the values for the binding signal (fold increase of EC50 vs no inhibitor) with PARP2 and in the data set with PARP1 were 1.6 and 1.8, respectively.
